The values that follow come from patent US12630600B2 (MEDIMMUNE LIMITED, priority 2022, dated 2026).

Starred links: 1 amine or outer side, 2 acyl side, 3 side chain; linkers in the order of their positions; H or OH if unused. Non-standard residues stand in square brackets, D forms with d. Groups on a side chain read outwards from the residue. No end group written: not given here. *: point of attachment. Trp(5-Br) = N[C@@H](Cc1c[nH]c2ccc(Br)cc12)C(=O)O; Bip = N[C@@H](Cc1ccc(-c2ccccc2)cc1)C(=O)O; C18 diacid = O=C(O)CCCCCCCCCCCCCCCCC(=O)*; γGlu = O=C(O)[C@H](CCC(=O)[*:2])N[*:1]; αMeF = C[C@](N)(Cc1ccccc1)C(=O)O; AEEA = NCCOCCOCC(=O)O; Aib = CC(C)(N)C(=O)O

B1: Peptide 427 (peptide)
peptide: H[Aib]QGTFTSDVSK[αMeF]LDTK([AEEA-AEEA-γGlu-C18 diacid])RARDFVQWLLE[Aib]G-NH2
modifications: N-terminus assumed
SMILES: CC(C)C[C@H](NC(=O)[C@H](Cc1c[nH]c2ccccc12)NC(=O)[C@H](CCC(N)=O)NC(=O)[C@@H](NC(=O)[C@H](Cc1ccccc1)NC(=O)[C@H](CC(=O)O)NC(=O)[C@H](CCCNC(=N)N)NC(=O)[C@H](C)NC(=O)[C@H](CCCNC(=N)N)NC(=O)[C@H](CCCCNC(=O)COCCOCCNC(=O)COCCOCCNC(=O)CC[C@H](NC(=O)CCCCCCCCCCCCCCCCC(=O)O)C(=O)O)NC(=O)[C@@H](NC(=O)[C@H](CC(=O)O)NC(=O)[C@H](CC(C)C)NC(=O)[C@](C)(Cc1ccccc1)NC(=O)[C@H](CCCCN)NC(=O)[C@H](CO)NC(=O)[C@@H](NC(=O)[C@H](CC(=O)O)NC(=O)[C@H](CO)NC(=O)[C@@H](NC(=O)[C@H](Cc1ccccc1)NC(=O)[C@@H](NC(=O)CNC(=O)[C@H](CCC(N)=O)NC(=O)C(C)(C)NC(=O)[C@@H](N)Cc1c[nH]cn1)[C@@H](C)O)[C@@H](C)O)C(C)C)[C@@H](C)O)C(C)C)C(=O)N[C@@H](CC(C)C)C(=O)N[C@@H](CCC(=O)O)C(=O)NC(C)(C)C(=O)NCC(N)=O
B2: Peptide 429 (peptide)
peptide: H[Aib]QGTFTSDVSK[αMeF]LDSK([AEEA-AEEA-γGlu-C18 diacid])RAQDFVRWLEA[Aib]G-NH2
modifications: N-terminus assumed
SMILES: CC(C)C[C@H](NC(=O)[C@H](Cc1c[nH]c2ccccc12)NC(=O)[C@H](CCCNC(=N)N)NC(=O)[C@@H](NC(=O)[C@H](Cc1ccccc1)NC(=O)[C@H](CC(=O)O)NC(=O)[C@H](CCC(N)=O)NC(=O)[C@H](C)NC(=O)[C@H](CCCNC(=N)N)NC(=O)[C@H](CCCCNC(=O)COCCOCCNC(=O)COCCOCCNC(=O)CC[C@H](NC(=O)CCCCCCCCCCCCCCCCC(=O)O)C(=O)O)NC(=O)[C@H](CO)NC(=O)[C@H](CC(=O)O)NC(=O)[C@H](CC(C)C)NC(=O)[C@](C)(Cc1ccccc1)NC(=O)[C@H](CCCCN)NC(=O)[C@H](CO)NC(=O)[C@@H](NC(=O)[C@H](CC(=O)O)NC(=O)[C@H](CO)NC(=O)[C@@H](NC(=O)[C@H](Cc1ccccc1)NC(=O)[C@@H](NC(=O)CNC(=O)[C@H](CCC(N)=O)NC(=O)C(C)(C)NC(=O)[C@@H](N)Cc1c[nH]cn1)[C@@H](C)O)[C@@H](C)O)C(C)C)C(C)C)C(=O)N[C@@H](CCC(=O)O)C(=O)N[C@@H](C)C(=O)NC(C)(C)C(=O)NCC(N)=O
B3: Peptide 431 (peptide)
peptide: H[Aib]QGTFTSDVSK[αMeF]LDTK([AEEA-AEEA-γGlu-γGlu-C18 diacid])RAQDFVAWLEA[Aib]G-NH2
modifications: N-terminus assumed
SMILES: CC(C)C[C@H](NC(=O)[C@H](Cc1c[nH]c2ccccc12)NC(=O)[C@H](C)NC(=O)[C@@H](NC(=O)[C@H](Cc1ccccc1)NC(=O)[C@H](CC(=O)O)NC(=O)[C@H](CCC(N)=O)NC(=O)[C@H](C)NC(=O)[C@H](CCCNC(=N)N)NC(=O)[C@H](CCCCNC(=O)COCCOCCNC(=O)COCCOCCNC(=O)CC[C@H](NC(=O)CC[C@H](NC(=O)CCCCCCCCCCCCCCCCC(=O)O)C(=O)O)C(=O)O)NC(=O)[C@@H](NC(=O)[C@H](CC(=O)O)NC(=O)[C@H](CC(C)C)NC(=O)[C@](C)(Cc1ccccc1)NC(=O)[C@H](CCCCN)NC(=O)[C@H](CO)NC(=O)[C@@H](NC(=O)[C@H](CC(=O)O)NC(=O)[C@H](CO)NC(=O)[C@@H](NC(=O)[C@H](Cc1ccccc1)NC(=O)[C@@H](NC(=O)CNC(=O)[C@H](CCC(N)=O)NC(=O)C(C)(C)NC(=O)[C@@H](N)Cc1c[nH]cn1)[C@@H](C)O)[C@@H](C)O)C(C)C)[C@@H](C)O)C(C)C)C(=O)N[C@@H](CCC(=O)O)C(=O)N[C@@H](C)C(=O)NC(C)(C)C(=O)NCC(N)=O
B4: Peptide 430 (peptide)
peptide: H[Aib]QGTFTSDVSK[αMeF]LDSK([AEEA-AEEA-γGlu-γGlu-C18 diacid])RAQDFVRWLEA[Aib]G-NH2
modifications: N-terminus assumed
SMILES: CC(C)C[C@H](NC(=O)[C@H](Cc1c[nH]c2ccccc12)NC(=O)[C@H](CCCNC(=N)N)NC(=O)[C@@H](NC(=O)[C@H](Cc1ccccc1)NC(=O)[C@H](CC(=O)O)NC(=O)[C@H](CCC(N)=O)NC(=O)[C@H](C)NC(=O)[C@H](CCCNC(=N)N)NC(=O)[C@H](CCCCNC(=O)COCCOCCNC(=O)COCCOCCNC(=O)CC[C@H](NC(=O)CC[C@H](NC(=O)CCCCCCCCCCCCCCCCC(=O)O)C(=O)O)C(=O)O)NC(=O)[C@H](CO)NC(=O)[C@H](CC(=O)O)NC(=O)[C@H](CC(C)C)NC(=O)[C@](C)(Cc1ccccc1)NC(=O)[C@H](CCCCN)NC(=O)[C@H](CO)NC(=O)[C@@H](NC(=O)[C@H](CC(=O)O)NC(=O)[C@H](CO)NC(=O)[C@@H](NC(=O)[C@H](Cc1ccccc1)NC(=O)[C@@H](NC(=O)CNC(=O)[C@H](CCC(N)=O)NC(=O)C(C)(C)NC(=O)[C@@H](N)Cc1c[nH]cn1)[C@@H](C)O)[C@@H](C)O)C(C)C)C(C)C)C(=O)N[C@@H](CCC(=O)O)C(=O)N[C@@H](C)C(=O)NC(C)(C)C(=O)NCC(N)=O
B5: Peptide 428 (peptide)
peptide: H[Aib]QGTFTSDVSK[αMeF]LDTK([AEEA-AEEA-γGlu-γGlu-C18 diacid])RARDFVQWLLE[Aib]G-NH2
modifications: N-terminus assumed
SMILES: CC(C)C[C@H](NC(=O)[C@H](Cc1c[nH]c2ccccc12)NC(=O)[C@H](CCC(N)=O)NC(=O)[C@@H](NC(=O)[C@H](Cc1ccccc1)NC(=O)[C@H](CC(=O)O)NC(=O)[C@H](CCCNC(=N)N)NC(=O)[C@H](C)NC(=O)[C@H](CCCNC(=N)N)NC(=O)[C@H](CCCCNC(=O)COCCOCCNC(=O)COCCOCCNC(=O)CC[C@H](NC(=O)CC[C@H](NC(=O)CCCCCCCCCCCCCCCCC(=O)O)C(=O)O)C(=O)O)NC(=O)[C@@H](NC(=O)[C@H](CC(=O)O)NC(=O)[C@H](CC(C)C)NC(=O)[C@](C)(Cc1ccccc1)NC(=O)[C@H](CCCCN)NC(=O)[C@H](CO)NC(=O)[C@@H](NC(=O)[C@H](CC(=O)O)NC(=O)[C@H](CO)NC(=O)[C@@H](NC(=O)[C@H](Cc1ccccc1)NC(=O)[C@@H](NC(=O)CNC(=O)[C@H](CCC(N)=O)NC(=O)C(C)(C)NC(=O)[C@@H](N)Cc1c[nH]cn1)[C@@H](C)O)[C@@H](C)O)C(C)C)[C@@H](C)O)C(C)C)C(=O)N[C@@H](CC(C)C)C(=O)N[C@@H](CCC(=O)O)C(=O)NC(C)(C)C(=O)NCC(N)=O
B6: Peptide 434 (peptide)
peptide: H[Aib]QGTFTSDVSK[αMeF]LDSK([AEEA-AEEA-γGlu-C18 diacid])RAQDFVR[Trp(5-Br)]LL[Aib]E-OH
modifications: N-terminus assumed
SMILES: CC(C)C[C@H](NC(=O)[C@H](Cc1c[nH]c2ccc(Br)cc12)NC(=O)[C@H](CCCNC(=N)N)NC(=O)[C@@H](NC(=O)[C@H](Cc1ccccc1)NC(=O)[C@H](CC(=O)O)NC(=O)[C@H](CCC(N)=O)NC(=O)[C@H](C)NC(=O)[C@H](CCCNC(=N)N)NC(=O)[C@H](CCCCNC(=O)COCCOCCNC(=O)COCCOCCNC(=O)CC[C@H](NC(=O)CCCCCCCCCCCCCCCCC(=O)O)C(=O)O)NC(=O)[C@H](CO)NC(=O)[C@H](CC(=O)O)NC(=O)[C@H](CC(C)C)NC(=O)[C@](C)(Cc1ccccc1)NC(=O)[C@H](CCCCN)NC(=O)[C@H](CO)NC(=O)[C@@H](NC(=O)[C@H](CC(=O)O)NC(=O)[C@H](CO)NC(=O)[C@@H](NC(=O)[C@H](Cc1ccccc1)NC(=O)[C@@H](NC(=O)CNC(=O)[C@H](CCC(N)=O)NC(=O)C(C)(C)NC(=O)[C@@H](N)Cc1c[nH]cn1)[C@@H](C)O)[C@@H](C)O)C(C)C)C(C)C)C(=O)N[C@@H](CC(C)C)C(=O)NC(C)(C)C(=O)N[C@@H](CCC(=O)O)C(=O)O
B7: Peptide 432 (peptide)
peptide: H[Aib]QGTFTSDVSK[αMeF]LDSK([AEEA-AEEA-γGlu-C18 diacid])RAQDFVR[Bip]LL[Aib]E-OH
modifications: N-terminus assumed
SMILES: CC(C)C[C@H](NC(=O)[C@H](Cc1ccc(-c2ccccc2)cc1)NC(=O)[C@H](CCCNC(=N)N)NC(=O)[C@@H](NC(=O)[C@H](Cc1ccccc1)NC(=O)[C@H](CC(=O)O)NC(=O)[C@H](CCC(N)=O)NC(=O)[C@H](C)NC(=O)[C@H](CCCNC(=N)N)NC(=O)[C@H](CCCCNC(=O)COCCOCCNC(=O)COCCOCCNC(=O)CC[C@H](NC(=O)CCCCCCCCCCCCCCCCC(=O)O)C(=O)O)NC(=O)[C@H](CO)NC(=O)[C@H](CC(=O)O)NC(=O)[C@H](CC(C)C)NC(=O)[C@](C)(Cc1ccccc1)NC(=O)[C@H](CCCCN)NC(=O)[C@H](CO)NC(=O)[C@@H](NC(=O)[C@H](CC(=O)O)NC(=O)[C@H](CO)NC(=O)[C@@H](NC(=O)[C@H](Cc1ccccc1)NC(=O)[C@@H](NC(=O)CNC(=O)[C@H](CCC(N)=O)NC(=O)C(C)(C)NC(=O)[C@@H](N)Cc1c[nH]cn1)[C@@H](C)O)[C@@H](C)O)C(C)C)C(C)C)C(=O)N[C@@H](CC(C)C)C(=O)NC(C)(C)C(=O)N[C@@H](CCC(=O)O)C(=O)O

In one test the target is human GLP-1 receptor (human, UniProt P43220). Nature of the test: cell-based or functional assay.
For the molecule B1, the “cAMP production EC50” value was 12.4 pM.
B2: the “cAMP production EC50” value came out at 15 pM.
Consider B3, for which the “cAMP production EC50” value worked out at 44.6 pM.
As for B4, the “cAMP production EC50” value amounted to 24.4 pM.
Consider B5, for which the “cAMP production EC50” value was 33.1 pM.
For the molecule B6, the “cAMP production EC50” value amounted to 153 pM.
Still for that read-out and setting: then B7, with 1380 pM.

In another test the target is human glucagon receptor (human, UniProt P47871). The test can be described thus: cell-based or functional assay.
Regarding B1, the “cAMP production EC50” value amounted to 47.2 pM.
On the same count and under the same terms, in the case of B2 it was 144 pM; in that of B3, 194 pM; in that of B4, 160 pM.
As for B5, the “cAMP production EC50” value worked out at 10.5 pM.
B6: the “cAMP production EC50” value is 294 pM.
For the molecule B7, the “cAMP production EC50” value was found to be 1160 pM.
